In patent US20140105889A1 (published 2014):
Each block holds one binder with its values, some of them ahead of it.

Legend:
[1] = target: T1, human FcRn (soluble human FcRn complexed with β2-microglobulin) (human, UniProt P61769 21-119); assay: SPR (Biacore), Protein L capture, hFcRn analyte, pH 7.0
T1 construct: also called hFcRn

human FcRn [2] = target: T2, human FcRn (human); assay: SPR (Biacore), antibody captured by Protein L, human FcRn as analyte, pH 7.0
T2 construct: Soluble human FcRn complexed with β2-microglobulin; also called hFcRn; soluble human FcRn complexed with β2-microglobulin

human FcRn [3] = target: T2, human FcRn; assay: as above; remark: listed apart in the source
[4] = target: T3, human FcRn (soluble human FcRn complexed with beta2-microglobulin) (human, UniProt P61769 21-119); assay: SPR (Biacore), pH 7.0, 25 C, antibody captured by Protein L, human FcRn as analyte
T3 construct: also called hFcRn

human FcRn [5] = target: T4, human FcRn (human); assay: as above
T4 construct: also called hFcRn; soluble human FcRn complexed with β2-microglobulin

B2: IgG1-F1288 (antibody, name in EU numbering)
heavy: QVQLQESGPGLVKPSETLSLTCAVSGHSISHDHAWSWVRQPPGEGLEWIGFISYSGITNYNPSLQGRVTISRDNSKNTLYLQMNSLRAEDTAVYYCARSLARTTAMDYWGEGTLVTVSSASTKGPSVFPLAPSSKSTSGGTAALGCLVKDYFPEPVTVSWNSGALTSGVHTFPAVLQSSGLYSLSSVVTVPSSSLGTQTYICNVNHKPSNTKVDKKVEPKSCDKTHTCPPCPAPELRGGPKVFLFPPKPKDTLYISREPEVTCVVVDVSHEDPEVKFNWYVDGVEVHNAKTKPREEQYNSTYRVVSVLTVLHQDWLNGKEYKCKVSNKALPAPIEKTISKAKGQPREPQVYTLPPSRDELTKNQVSLTCLVKGFYPSDIAVEWESNGQPENNYKTTPPVLDSDGSFFLYSKLTVDKSRWQQGNVFSCSVMHEALHYHVTKKDLSLSP
light: not shown
notes: light chain L(WT)-CK; copies: 2 + 2
Kd (human FcRn [2]): 79.5 nM

B3: IgG1-F1339 (antibody, name in EU numbering)
heavy: QVQLQESGPGLVKPSETLSLTCAVSGHSISHDHAWSWVRQPPGEGLEWIGFISYSGITNYNPSLQGRVTISRDNSKNTLYLQMNSLRAEDTAVYYCARSLARTTAMDYWGEGTLVTVSSASTKGPSVFPLAPSSKSTSGGTAALGCLVKDYFPEPVTVSWNSGALTSGVHTFPAVLQSSGLYSLSSVVTVPSSSLGTQTYICNVNHKPSNTKVDKKVEPKSCDKTHTCPPCPAPELRGGPKVFLFPPKPKDTLYITREPEVTCVVVDVSHEDPEVKFNWYVDGVEVHNAKTKPREEQYNSTYRVVSVLTVLHQDWLNGKEYKCKVSNKALPAPIEKTISKAKGQPREPQVYTLPPSRDELTKNQVSLTCLVKGFYPSDIAVEWESNGQPENNYKTTPPVLDSDGSFFLYSKLTVDKSRWQQGNVFSCSVMHEALDYHTTKKELSLSP
light: not shown
notes: as for B2
Kd (human FcRn [3]): 251 nM

B4: IgG1-F1335 (antibody, name in EU numbering)
heavy: QVQLQESGPGLVKPSETLSLTCAVSGHSISHDHAWSWVRQPPGEGLEWIGFISYSGITNYNPSLQGRVTISRDNSKNTLYLQMNSLRAEDTAVYYCARSLARTTAMDYWGEGTLVTVSSASTKGPSVFPLAPSSKSTSGGTAALGCLVKDYFPEPVTVSWNSGALTSGVHTFPAVLQSSGLYSLSSVVTVPSSSLGTQTYICNVNHKPSNTKVDKKVEPKSCDKTHTCPPCPAPELRRGPKVFLFPPKPKDTLYITRTPEVTCVVVDVSHEDPEVKFNWYVDGVEVHNAKTKPREEQYNSTYRVVSVLTVLHQDWLNGKEYKCKVSNKALPAPIEKTISKAKGQPREPQVYTLPPSRDELTKNQVSLTCLVKGFYPSDIAVEWESNGQPENNYKTTPPVLDSDGSFFLYSKLTVDKSRWQQGNVFSCSVMHEALHYHVTKKDLSLSP
light: not shown
notes: as for B2
Kd (human FcRn [3]): 87.8 nM

B7: IgG1-F1014 (antibody, name in EU numbering)
heavy: QVQLQESGPGLVKPSETLSLTCAVSGHSISHDHAWSWVRQPPGEGLEWIGFISYSGITNYNPSLQGRVTISRDNSKNTLYLQMNSLRAEDTAVYYCARSLARTTAMDYWGEGTLVTVSSASTKGPSVFPLAPSSKSTSGGTAALGCLVKDYFPEPVTVSWNSGALTSGVHTFPAVLQSSGLYSLSSVVTVPSSSLGTQTYICNVNHKPSNTKVDKKVEPKSCDKTHTCPPCPAPELRGGPKVFLFPPKPKDVLYISRTPEVTCVVVDVSHEDPEVKFNWYVDGVEVHNAKTKPREEQYNSTYRVVSVLQPLHADWLNGKEYKCKVSNKALPAPIEKTISKAKGQPREPQVYTLPPSRDELTKNQVSLTCLVKGFYPSDIAVEWESNGQPENNYKTTPPVLDSDGSFFLYSKLTVDKSRWQQGNVFSCSVMHEALHYHYTQKSLSLSP
light: not shown
Kd [4]: 32 nM

B8: F1189 (antibody, name in EU numbering)
heavy: QVQLQESGPGLVKPSETLSLTCAVSGHSISHDHAWSWVRQPPGEGLEWIGFISYSGITNYNPSLQGRVTISRDNSKNTLYLQMNSLRAEDTAVYYCARSLARTTAMDYWGEGTLVTVSSASTKGPSVFPLAPSSKSTSGGTAALGCLVKDYFPEPVTVSWNSGALTSGVHTFPAVLQSSGLYSLSSVVTVPSSSLGTQTYICNVNHKPSNTKVDKKVEPKSCDKTHTCPPCPAPELLGGPSVFLFPPKPKDTLYISRTPEVTCVVVDVSHEDPEVKFNWYVDGVEVHNAKTKPREEQYNSTYRVVSVLTVLHQDWLNGKEYKCKVSNKALPAPIEKTISKAKGQPREPQVYTLPPSRDELTKNQVSLTCLVKGFYPSDIAVEWESNGQPENNYKTTPPVLDSDGSFFLYSKLTVDKSRWQQGNVFSCSVMHEALDYHVTRKELSLSP
light: not shown
notes: copies: 2 + 2
Kd (human FcRn [5]): 157 nM

B9: F1211 (antibody, human IgG1, kappa, name in EU numbering)
heavy: QVQLQESGPGLVKPSETLSLTCAVSGHSISHDHAWSWVRQPPGEGLEWIGFISYSGITNYNPSLQGRVTISRDNSKNTLYLQMNSLRAEDTAVYYCARSLARTTAMDYWGEGTLVTVSSASTKGPSVFPLAPSSKSTSGGTAALGCLVKDYFPEPVTVSWNSGALTSGVHTFPAVLQSSGLYSLSSVVTVPSSSLGTQTYICNVNHKPSNTKVDKKVEPKSCDKTHTCPPCPAPELLGGPSVFLFPPKPKDTHYISRTPEVTCVVVDVSHEDPEVKFNWYVDGVEVHNAKTKPREEQYNSTYRVVSVLTVLHQDWLNGKEYKCKVSNKALPAPIEKTISKAKGQPREPQVYTLPPSRDELTKNQVSLTCLVKGFYPSDIAVEWESNGQPENNYKTTPPVLDSDGSFFLYSKLTVDKSRWQQGNVFSCSVMHEALHYHVTQKSLSLSP
light: not shown
notes: copies: 2 + 2
Kd (human FcRn [5]): 1230 nM

B11: F1192 (antibody, name in EU numbering)
heavy: QVQLQESGPGLVKPSETLSLTCAVSGHSISHDHAWSWVRQPPGEGLEWIGFISYSGITNYNPSLQGRVTISRDNSKNTLYLQMNSLRAEDTAVYYCARSLARTTAMDYWGEGTLVTVSSASTKGPSVFPLAPSSKSTSGGTAALGCLVKDYFPEPVTVSWNSGALTSGVHTFPAVLQSSGLYSLSSVVTVPSSSLGTQTYICNVNHKPSNTKVDKKVEPKSCDKTHTCPPCPAPELLGGPSVFLFPPKPKDTLYISRTPEVTCVVVDVSHEDPEVKFNWYVDGVEVHNAKTKPREEQYNSTYRVVSVLTVLHQDWLNGKEYKCKVSNKALPAPIEKTISKAKGQPREPQVYTLPPSRDELTKNQVSLTCLVKGFYPSDIAVEWESNGQPENNYKTTPPVLDSDGSFFLYSKLTVDKSRWQQGNVFSCSVMHEALHYHVGRKELSLSP
light: not shown
notes: copies: 2 + 2
Kd (human FcRn [5]): 127 nM

B12: IgG1-F1019 (antibody, name in EU numbering)
heavy: QVQLQESGPGLVKPSETLSLTCAVSGHSISHDHAWSWVRQPPGEGLEWIGFISYSGITNYNPSLQGRVTISRDNSKNTLYLQMNSLRAEDTAVYYCARSLARTTAMDYWGEGTLVTVSSASTKGPSVFPLAPSSKSTSGGTAALGCLVKDYFPEPVTVSWNSGALTSGVHTFPAVLQSSGLYSLSSVVTVPSSSLGTQTYICNVNHKPSNTKVDKKVEPKSCDKTHTCPPCPAPELLGGDSVFLFPPKPKDVLYISRTPEVTCVVVDVSHEDPEVKFNWYVDGVEVHNAKTKPREEQYNSTYRVVSVLTVLHQDWLNGKEYKCKVSGKALPAPIEKTISKAKGQPREPQVYTLPPSRDELTKNQVSLTCLVKGFYPSDIAVEWESNGQPENNYKTTPPVLDSDGSFFLYSKLTVDKSRWQQGNVFSCSVMHEALHYHYTQKSLSLSP
light: not shown
Kd [4]: 340 nM

Continued, values first:

Kd [1]: 25 nM
B1: IgG1-F529 (antibody, name in EU numbering)
heavy: QVQLQESGPGLVKPSETLSLTCAVSGHSISHDHAWSWVRQPPGEGLEWIGFISYSGITNYNPSLQGRVTISRDNSKNTLYLQMNSLRAEDTAVYYCARSLARTTAMDYWGEGTLVTVSSASTKGPSVFPLAPSSKSTSGGTAALGCLVKDYFPEPVTVSWNSGALTSGVHTFPAVLQSSGLYSLSSVVTVPSSSLGTQTYICNVNHKPSNTKVDKKVEPKSCDKTHTCPPCPAPELLGGPSVFLFPPKPKDTLMISRTTEVTCVVVDVSHEDPEVKFNWYVDGVEVHNAKTKPREEQYNSTYRVVSVLQVLHQDWLNGKEYKCKVSNKALPAPIEKTISKAKGQPREPQVYTLPPSRDELTKNQVSLTCLVKGFYPSDIAVEWESNGQPENNYKTTPPVLDSDGSFFLYSKLTVDKSRWQQGNVFSCSVFHEALHYHYTQKSLSLSP
light: not shown
notes: copies: 2 + 2

Kd (human FcRn [2]): 169 nM
B5: IgG1-F1311 (antibody, name in EU numbering)
heavy: QVQLQESGPGLVKPSETLSLTCAVSGHSISHDHAWSWVRQPPGEGLEWIGFISYSGITNYNPSLQGRVTISRDNSKNTLYLQMNSLRAEDTAVYYCARSLARTTAMDYWGEGTLVTVSSASTKGPSVFPLAPSSKSTSGGTAALGCLVKDYFPEPVTVSWNSGALTSGVHTFPAVLQSSGLYSLSSVVTVPSSSLGTQTYICNVNHKPSNTKVDKKVEPKSCDKTHTCPPCPAPELRGGPKVFLFPPKPKDTLYISRTPEVTCVVVDVSHEDPEVKFNWYVDGVEVHNAKTKPREEQYNSTYRVVSVLTVLHQDWLNGKEYKCKVSNKALPAPIEKTISKAKGQPREPQVYTLPPSRDELTKNQVSLTCLVKGFYPSDIAVEWESNGQPENNYKTTPPVLDSDGSFFLYSKLTVDKSRWQQGNAFACSVMHEALDYHVTQKSLSLSP
light: not shown
notes: as for B2

Kd (human FcRn [2]): 133 nM
B6: IgG1-F1289 (antibody, name in EU numbering)
heavy: QVQLQESGPGLVKPSETLSLTCAVSGHSISHDHAWSWVRQPPGEGLEWIGFISYSGITNYNPSLQGRVTISRDNSKNTLYLQMNSLRAEDTAVYYCARSLARTTAMDYWGEGTLVTVSSASTKGPSVFPLAPSSKSTSGGTAALGCLVKDYFPEPVTVSWNSGALTSGVHTFPAVLQSSGLYSLSSVVTVPSSSLGTQTYICNVNHKPSNTKVDKKVEPKSCDKTHTCPPCPAPELRGGPKVFLFPPKPKDTLYISREPEVTCVVVDVSHEDPEVKFNWYVDGVEVHNAKTKPREEQYNSTYRVVSVLTVLHQDWLNGKEYKCKVSNKALPAPIEKTISKAKGQPREPQVYTLPPSRDELTKNQVSLTCLVKGFYPSDIAVEWESNGQPENNYKTTPPVLDSDGSFFLYSKLTVDKSRWQQGNVFSCSVMHEALDYHVTRKELSLSP
light: not shown
notes: as for B2

Kd [4]: 4.2 nM
B10: IgG1-F1017 (antibody)
heavy: QVQLQESGPGLVKPSETLSLTCAVSGHSISHDHAWSWVRQPPGEGLEWIGFISYSGITNYNPSLQGRVTISRDNSKNTLYLQMNSLRAEDTAVYYCARSLARTTAMDYWGEGTLVTVSSASTKGPSVFPLAPSSKSTSGGTAALGCLVKDYFPEPVTVSWNSGALTSGVHTFPAVLQSSGLYSLSSVVTVPSSSLGTQTYICNVNHKPSNTKVDKKVEPKSCDKTHTCPPCPAPELRGGPKVFLFPPKPKDVLYISRTPEVTCVVVDVSHEDPEVKFNWYVDGVEVHEAKTKPREEQYNSTYRVVSVLQPLHADWLNGKEYKCKVSNKALPAPIEKTISKAKGQPREPQVYTLPPSRDELTKNQVSLTCLVKGFYPSDIAVEWESNGQPENNYKTTPPVLDSDGSFFLYSKLTVDKSRWQQGNVFSCSVMHEALHYHVTQKSLSLSP
light: not shown
